Data reported in publication PMC5736220, “Using thermal scanning assays to test protein-protein interactions of inner-ear cadherins” (PLoS ONE, 2017).

Legend:
Conditions in all cases: both partners purified
[1] = target: T1, protocadherin-15 EC1+2, wild type, His-tagged (mouse, UniProt Q99PJ1 27-259); assay: SPR; Biacore T100, Ni-NTA chip, 6xHis pcdh15 immobilised, tag-free cdh23 0.25 to 30 μM injected, 25°C, SEC buffer; global kinetic fit with EVILFIT (distribution model)
T1 construct: Protocadherin-15 (PCDH15), mouse, N-terminal fragment EC1+2; pET21a, NdeI/XhoI; predicted molecular weight 27.5 kDa; Held on the Ni-NTA chip by its His tag in SPR; also called pcdh15; pcdh15(WT); not shown: His6, C-terminal, kept

[2] = target: T1, protocadherin-15 EC1+2, wild type, …; assay: SPR; Biacore T100, Ni-NTA chip, 6xHis pcdh15 immobilised, tag-free cdh23 0.25 to 30 μM injected, 25°C, SEC buffer; KD from binding isotherms (Biacore T100 evaluation software)
[3] = target: T2, protocadherin-15 EC1+2 G16D, His-tagged (mouse, UniProt Q99PJ1 27-259, G16D); assay: SPR; Biacore T100, Ni-NTA chip, 6xHis pcdh15 immobilised, tag-free cdh23 0.25 to 30 μM injected, 25°C, SEC buffer; global kinetic fit with EVILFIT (distribution model)
T2 construct: Protocadherin-15 (PCDH15), mouse, N-terminal fragment EC1+2; Mutant of m12 made with QuikChange; Held on the Ni-NTA chip by its His tag in SPR; also called pcdh15(G16D); not shown: His6, C-terminal, kept

[4] = target: T2, protocadherin-15 EC1+2 G16D, His-tagged; assay: SPR; Biacore T100, Ni-NTA chip, 6xHis pcdh15 immobilised, tag-free cdh23 0.25 to 30 μM injected, 25°C, SEC buffer; KD from binding isotherms (Biacore T100 evaluation software)
[5] = target: T1, protocadherin-15 EC1+2, wild type, …; assay: thermal scanning (thermal stability shift assay with SYPRO orange); pcdh15 fixed at 0.1 mg/mL (~4 μM), cdh23 0.1 to 0.5 mg/mL (~4 to 20 μM; cdh23:pcdh15 1:1 to 5:1); SEC buffer (20 mM Tris-HCl pH 7.5, 150 mM KCl, 50 mM NaCl, 2 mM CaCl2); 10 to 95°C in 0.2°C steps, 5 s equilibration; read-out: shift of the Tm of pcdh15 (ΔTm)
[6] = target: T2, protocadherin-15 EC1+2 G16D, His-tagged; assay: as above
[7] = target: T3, protocadherin-15 EC1+2 Q165L, His-tagged (mouse, UniProt Q99PJ1 27-259, Q165L); assay: as above
T3 construct: Protocadherin-15 (PCDH15), mouse, N-terminal fragment EC1+2; Mutant of m12 made with QuikChange; Held on the Ni-NTA chip by its His tag in SPR; also called pcdh15(Q165L); not shown: His6, C-terminal, kept

[8] = target: T4, protocadherin-15 EC1+2 I108N, His-tagged (mouse, UniProt Q99PJ1 27-259, I108N); assay: as above
T4 construct: Protocadherin-15 (PCDH15), mouse, N-terminal fragment EC1+2; Deafness-related missense mutation put into the mouse fragment m12 with QuikChange; also called pcdh15(I108N)

[9] = target: T5, protocadherin-15 EC1+2 H91R, His-tagged (mouse, UniProt Q99PJ1 27-259, H91R); assay: as above
T5 construct: Protocadherin-15 (PCDH15), mouse, N-terminal fragment EC1+2; Mutant of m12 made with QuikChange; also called pcdh15(H91R)

Kd [1] | koff [1] | kon [1] | Kd [2] | Binder | ΔTm of pcdh15 at cdh23:pcdh15 1:1 [5] | ΔTm of pcdh15 at cdh23:pcdh15 2:1 [5] | ΔTm of pcdh15 at cdh23:pcdh15 3:1 [5] | ΔTm of pcdh15 at cdh23:pcdh15 4:1 [5] | ΔTm of pcdh15 at cdh23:pcdh15 5:1 [5] | further results
3250 ± 250 nM | 0.22 ± 0.04 s⁻¹ | 66000 M⁻¹ s⁻¹ | 1580 ± 30 nM | cadherin-23 EC1+2 (residues 1-205) F7E, tagless (domain or fragment, mouse, an Ala residue included between CDH23 EC2 and the intein tag to improve cleavage efficiency; Mutant of m8; That the added Ala stays on the C-terminus after cleavage is surmised; also called cdh23(F7E)) QVNRLPEFTNHFFDTYLLISEDTPVGSSVTQLLARDMDNDPLVFGVSGEEASRFFAVEPDTGVVWLRQPLDRETKSEFTVEFSVSDHQGVITRKVNIQVGDVNDNAPTFHNQPYSVRIPENTPVGTPIFIVNATDPDLGAGGSVLYSFQPPSPFFAIDSARGIVTVIQELDYEVTQAYQLTVNATDQDKTRPLSTLANLAIIITDA | – | – | – | – | – | –
2050 ± 100 nM | 0.11 ± 0.01 s⁻¹ | 55100 M⁻¹ s⁻¹ | 880 ± 60 nM | cadherin-23 EC1+2 (residues 1-205) T15E, tagless (domain or fragment, mouse, an Ala residue included between CDH23 EC2 and the intein tag to improve cleavage efficiency; Mutant of m8; That the added Ala stays on the C-terminus after cleavage is surmised; also called cdh23(T15E)) QVNRLPFFTNHFFDEYLLISEDTPVGSSVTQLLARDMDNDPLVFGVSGEEASRFFAVEPDTGVVWLRQPLDRETKSEFTVEFSVSDHQGVITRKVNIQVGDVNDNAPTFHNQPYSVRIPENTPVGTPIFIVNATDPDLGAGGSVLYSFQPPSPFFAIDSARGIVTVIQELDYEVTQAYQLTVNATDQDKTRPLSTLANLAIIITDA | – | – | – | – | – | Kd [3]: 1420 ± 50 nM; koff [3]: 0.09 s⁻¹; kon [3]: 61400 M⁻¹ s⁻¹; Kd [4]: 620 ± 110 nM
2790 ± 880 nM | 0.18 ± 0.01 s⁻¹ | 68800 M⁻¹ s⁻¹ | 1160 ± 560 nM | cadherin-23 EC1+2 (residues 1-205) S76V, tagless (domain or fragment, mouse, an Ala residue included between CDH23 EC2 and the intein tag to improve cleavage efficiency; Mutant of m8; That the added Ala stays on the C-terminus after cleavage is surmised; also called cdh23(S76V)) QVNRLPFFTNHFFDTYLLISEDTPVGSSVTQLLARDMDNDPLVFGVSGEEASRFFAVEPDTGVVWLRQPLDRETKVEFTVEFSVSDHQGVITRKVNIQVGDVNDNAPTFHNQPYSVRIPENTPVGTPIFIVNATDPDLGAGGSVLYSFQPPSPFFAIDSARGIVTVIQELDYEVTQAYQLTVNATDQDKTRPLSTLANLAIIITDA | – | – | – | – | – | –
– | – | – | – | cadherin-23 EC1+2, wild type, His-tagged (domain or fragment, mouse, Cadherin-23 (CDH23), mouse, N-terminal fragment EC1+2; pET21a, NdeI/XhoI; predicted molecular weight 23.8 kDa; also called cdh23; cdh23(WT)) QVNRLPFFTNHFFDTYLLISEDTPVGSSVTQLLARDMDNDPLVFGVSGEEASRFFAVEPDTGVVWLRQPLDRETKSEFTVEFSVSDHQGVITRKVNIQVGDVNDNAPTFHNQPYSVRIPENTPVGTPIFIVNATDPDLGAGGSVLYSFQPPSPFFAIDSARGIVTVIQELDYEVTQAYQLTVNATDQDKTRPLSTLANLAIIITD | 1.8 ± 0.8 °C | 3.2 ± 0.7 °C | 4.1 ± 0.8 °C | 5 ± 0.7 °C | 5.5 ± 0.8 °C | ΔTm of pcdh15 at cdh23:pcdh15 1:1 [6]: 3 ± 0.5 °C; ΔTm of pcdh15 at cdh23:pcdh15 2:1 [6]: 4.5 ± 0.7 °C; ΔTm of pcdh15 at cdh23:pcdh15 3:1 [6]: 5.6 °C; ΔTm of pcdh15 at cdh23:pcdh15 4:1 [6]: 6.2 ± 0.1 °C; ΔTm of pcdh15 at cdh23:pcdh15 5:1 [6]: 6.8 ± 0.4 °C; ΔTm of pcdh15 at cdh23:pcdh15 1:1 [7]: 1.1 ± 0.4 °C; ΔTm of pcdh15 at cdh23:pcdh15 2:1 [7]: 1.7 ± 0.7 °C; ΔTm of pcdh15 at cdh23:pcdh15 3:1 [7]: 2.3 ± 0.6 °C; ΔTm of pcdh15 at cdh23:pcdh15 4:1 [7]: 2.7 ± 0.9 °C; ΔTm of pcdh15 at cdh23:pcdh15 5:1 [7]: 3.7 ± 1.1 °C; ΔTm of pcdh15 at cdh23:pcdh15 1:1 [8]: 0 °C; ΔTm of pcdh15 at cdh23:pcdh15 2:1 [8]: 0.2 ± 0.2 °C; ΔTm of pcdh15 at cdh23:pcdh15 3:1 [8]: 0.4 ± 0.1 °C; ΔTm of pcdh15 at cdh23:pcdh15 4:1 [8]: 0.4 ± 0.1 °C; ΔTm of pcdh15 at cdh23:pcdh15 5:1 [8]: 0.5 °C
– | – | – | – | cadherin-23 EC1+2 T79E, His-tagged (domain or fragment, mouse, Cadherin-23 (CDH23), mouse, N-terminal fragment EC1+2; Mutant of m1 made with QuikChange; also called cdh23(T79E)) QVNRLPFFTNHFFDTYLLISEDTPVGSSVTQLLARDMDNDPLVFGVSGEEASRFFAVEPDTGVVWLRQPLDRETKSEFEVEFSVSDHQGVITRKVNIQVGDVNDNAPTFHNQPYSVRIPENTPVGTPIFIVNATDPDLGAGGSVLYSFQPPSPFFAIDSARGIVTVIQELDYEVTQAYQLTVNATDQDKTRPLSTLANLAIIITD | – | – | – | – | – | ΔTm of pcdh15 at cdh23:pcdh15 1:1 [9]: 2.1 ± 0.4 °C; ΔTm of pcdh15 at cdh23:pcdh15 2:1 [9]: 4.1 ± 0.5 °C; ΔTm of pcdh15 at cdh23:pcdh15 3:1 [9]: 5.3 ± 1.8 °C; ΔTm of pcdh15 at cdh23:pcdh15 4:1 [9]: 6 ± 1.8 °C; ΔTm of pcdh15 at cdh23:pcdh15 5:1 [9]: 7.3 ± 1.3 °C
– | – | – | – | cadherin-23 EC1+2 F7E, His-tagged (domain or fragment, mouse, Cadherin-23 (CDH23), mouse, N-terminal fragment EC1+2; Mutant of m1 made with QuikChange; also called cdh23(F7E)) QVNRLPEFTNHFFDTYLLISEDTPVGSSVTQLLARDMDNDPLVFGVSGEEASRFFAVEPDTGVVWLRQPLDRETKSEFTVEFSVSDHQGVITRKVNIQVGDVNDNAPTFHNQPYSVRIPENTPVGTPIFIVNATDPDLGAGGSVLYSFQPPSPFFAIDSARGIVTVIQELDYEVTQAYQLTVNATDQDKTRPLSTLANLAIIITD | 1.7 ± 0.6 °C | 4.8 ± 0.6 °C | 5.5 ± 0.3 °C | 5.9 ± 0.2 °C | 7 ± 0.2 °C | –
– | – | – | – | cadherin-23 EC1+2 T15E, His-tagged (domain or fragment, mouse, Cadherin-23 (CDH23), mouse, N-terminal fragment EC1+2; Mutant of m1 made with QuikChange; also called cdh23(T15E)) QVNRLPFFTNHFFDEYLLISEDTPVGSSVTQLLARDMDNDPLVFGVSGEEASRFFAVEPDTGVVWLRQPLDRETKSEFTVEFSVSDHQGVITRKVNIQVGDVNDNAPTFHNQPYSVRIPENTPVGTPIFIVNATDPDLGAGGSVLYSFQPPSPFFAIDSARGIVTVIQELDYEVTQAYQLTVNATDQDKTRPLSTLANLAIIITD | 2.3 ± 0.4 °C | 3.9 °C | 4.8 ± 0.1 °C | 6 ± 0.5 °C | 6.7 ± 0.6 °C | ΔTm of pcdh15 at cdh23:pcdh15 1:1 [6]: 2.4 ± 0.4 °C; ΔTm of pcdh15 at cdh23:pcdh15 2:1 [6]: 4.5 ± 0.8 °C; ΔTm of pcdh15 at cdh23:pcdh15 3:1 [6]: 5.5 ± 0.7 °C; ΔTm of pcdh15 at cdh23:pcdh15 4:1 [6]: 6.5 ± 1.2 °C; ΔTm of pcdh15 at cdh23:pcdh15 5:1 [6]: 7.2 ± 1.1 °C
– | – | – | – | cadherin-23 EC1+2 S76V, His-tagged (domain or fragment, mouse, Cadherin-23 (CDH23), mouse, N-terminal fragment EC1+2; Mutant of m1 made with QuikChange; also called cdh23(S76V)) QVNRLPFFTNHFFDTYLLISEDTPVGSSVTQLLARDMDNDPLVFGVSGEEASRFFAVEPDTGVVWLRQPLDRETKVEFTVEFSVSDHQGVITRKVNIQVGDVNDNAPTFHNQPYSVRIPENTPVGTPIFIVNATDPDLGAGGSVLYSFQPPSPFFAIDSARGIVTVIQELDYEVTQAYQLTVNATDQDKTRPLSTLANLAIIITD | 1.7 ± 1 °C | 3 ± 1.7 °C | 4 ± 1.5 °C | 5.1 ± 1.8 °C | 5.4 ± 1.9 °C | –
